Source: patent EP4582447A1 (Quaerite Biopharm Research (Beijing) Co., Ltd., dated 2025)

B1: V1-4m (VHH)
VHH: EVQLVESGGGLVQPGGSLRLSCAASGRTFSSYTMGWFRQAPGKEREFVVAISKGGYKYDSVSLEARFTISRDNAKNTVYLQMNSLRPEDTAVYYCASTRAYGSSRLRLADTYEYWGQGTLVTVSS
notes: Humanized V1
B2: V1-com-74-78-97 (VHH)
VHH: EVQLVESGGGLVQPGGSLRLSCAASGRTFSSYTMGWFRQAPGKEREFVVAISKGGYKYDSVSLEARFTISRDNAKNTVYLQMNSLRAEDTAVYYCASTRAYGSSRLRLADTYEYWGQGTLVTVSS
notes: Humanized V1
B3: V43-4m (VHH)
VHH: EVQLVESGGGLVQPGGSLRLSCAASGRTFTSYTMGWFRQAPGKEREFVVAISKGGYKYDSVSLEARFTISRDNAKNTVYLQMNSLRPEDTAVYYCAGTRAYGSSRLRLANTYEYWGQGTLVTVSS
notes: Humanized V43
B4: V1-SA3 (VHH)
VHH: EVQLVESGGGLVQPGGSLRLSCAASGRTFSSYTMGWFRQAPGKEREFVVAISKGGYKYDSVSLEARFTISRDNAKNTVYLQMNSLRAEDTAVYYCAATRAYGSSRLRLADTYEYWGQGTLVTVSS
notes: Humanized V1
B5: V13-4m (VHH)
VHH: EVQLVESGGGLVQPGGSLRLSCAASGRTFTSYTMGWFRQAPGKEREFVVAISKGGYKYDAVSLEARFTISRDNAKNTVYLQMNSLRPEDTAVYYCAGTRAYGSSRLRLADTYEYWGQGTLVTVSS
notes: Humanized V13
B6: V13-2m (VHH)
VHH: EVQLVESGGGLVQPGGSLRLSCAASGRTFTSYTMGWFRQAPGKEREFVVAISKGGYKYDAVSLEARFTISRDNSKNTVYLQMNSLRPEDTAVYYCAGTRAYGSSRLRLADTYEYWGQGTLVTVSS
notes: Humanized V13 (CDR graft on humanized V1 frameworks)
B7: V43-1H-87 (VHH)
VHH: EVQLVESGGGLVQPGGSLRLSCAASGRTFSSYTMGWFRQAPGKEREFVVAISKGGYKYDSVSLEARFTISRDNSKNTLYLQMNSLRPEDTAVYYCAATRAYGSSRLRLANTYEYWGQGTLVTVSS
notes: Humanized V43
B8: V30-2H-87 (VHH)
VHH: EVQLVESGGGLVQPGGSLRLSCAASGRTFSSYTMGWFRQAPGKEREFVVAISKGGYKYDAVSLEARFTISRDNSKNTLYLQMNSLRPEDTAVYYCAATRAYGSSRLRLAKTYEYWGQGTLVTVSS
notes: Humanized V30
B9: V30-2H-2m (VHH)
VHH: EVQLVESGGGLVQPGGSLRLSCAASGRTFSSYTMGWFRQAPGKEREFVVAISKGGYKYDAVSLEARFTISRDNSKNTVYLQMNSLRPEDTAVYYCAATRAYGSSRLRLAKTYEYWGQGTLVTVSS
notes: Humanized V30
B10: V43-1H-2m (VHH)
VHH: EVQLVESGGGLVQPGGSLRLSCAASGRTFSSYTMGWFRQAPGKEREFVVAISKGGYKYDSVSLEARFTISRDNSKNTVYLQMNSLRPEDTAVYYCAATRAYGSSRLRLANTYEYWGQGTLVTVSS
notes: Humanized V43
B11: V43-1H-78 (VHH)
VHH: EVQLVESGGGLVQPGGSLRLSCAASGRTFSSYTMGWFRQAPGKEREFVVAISKGGYKYDSVSLEARFTISRDNSKNTVYLQMNSLRAEDTAVYYCAATRAYGSSRLRLANTYEYWGQGTLVTVSS
notes: Humanized V43
B12: V30-2H-78 (VHH)
VHH: EVQLVESGGGLVQPGGSLRLSCAASGRTFSSYTMGWFRQAPGKEREFVVAISKGGYKYDAVSLEARFTISRDNSKNTVYLQMNSLRAEDTAVYYCAATRAYGSSRLRLAKTYEYWGQGTLVTVSS
notes: Humanized V30

Molecular target: T1, Human VEGFA165 (human, UniProt P15692-4 27-191)
T1 construct: treated as the same molecule; also called antigen VEGFA
Experiment: competition ELISA on coated VEGFA, competitor VEGFR2-ECD-Fc 2 nM

T1 sequence (P15692 other isoform, or with tags, fused parts or gaps limits assumed): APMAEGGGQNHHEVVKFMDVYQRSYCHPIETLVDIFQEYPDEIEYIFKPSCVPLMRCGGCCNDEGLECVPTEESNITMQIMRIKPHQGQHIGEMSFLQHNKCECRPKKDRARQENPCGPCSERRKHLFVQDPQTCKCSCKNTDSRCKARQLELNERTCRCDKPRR

Which IC50 does the source give for B1 here?
Its IC50 is 26.1 nM.

What about the “Maximum inhibition rate (%)” value of the same binder?
The value was 93%.

B2 was tested. Which IC50 did it give?
Its IC50 is 20 nM.

And the “Maximum inhibition rate (%)” value?
Its value is 94.4%.

Which results are given for B3?
IC50: 35.5 nM; Maximum inhibition rate (%): 89.3%

For B4, which IC50 is on record?
The IC50 was 26.7 nM.

What about the “Maximum inhibition rate (%)” value of the same binder?
Its value is 93.5%.

Which results are given for B5?
IC50: 26.8 nM; Maximum inhibition rate (%): 89.2%

For B6, which IC50 is on record?
Its IC50 is 40.1 nM.

And the “Maximum inhibition rate (%)” value?
Its value is 88.9%.

Molecular target: T1, Human VEGFA165
Experiment: competition ELISA on coated VEGFA, competitor VEGFR2-ECD-Fc 1 nM

B7 was tested. Which IC50 did it give?
The IC50 was 5.27 nM.

And the “Maximum inhibition rate (%)” value?
Its value is 95.4%.

Which results are given for B8?
IC50: 5.81 nM; Maximum inhibition rate (%): 94.2%

How did the IC50 turn out when B9 was run?
Its IC50 is 5.64 nM.

What about the “Maximum inhibition rate (%)” value of the same binder?
Its value is 94.7%.

What does the source list for B10?
IC50: 5.99 nM; Maximum inhibition rate (%): 94.5%

With B11 as the binder, how does the IC50 read?
Its IC50 is 5.62 nM.

What about the “Maximum inhibition rate (%)” value of the same binder?
The value was 95.5%.

With B12 as the binder, how does the IC50 read?
Its IC50 is 4.97 nM.

What about the “Maximum inhibition rate (%)” value of the same binder?
The value was 95.5%.
